US6867027B1, “RNA polymerase” (The Institute of Physical and Chemical Research, priority 1997, dated 2005)
Entries after “also recorded” stand apart in the source; their conditions may differ.

Assays:
[1] = Inhibition of [α-32P]UTP incorporation by 3′-dATP in the transcription reaction (3′-dNTP incorporation rate); format: biochemical; conditions: compared with wild type T7 RNA polymerase
Experimental: Ribonucleotide (NTP) and 3′-deoxynucleotide (3′-dNTP) incorporation rates of the mutant T7 RNA polymerase purified in Example 7 were measured as follows.
pBluescript(KS+) plasmid (Stratagene) linearized by reaction with a restriction endonuclease, PvuII, was used as a template for the transcription reaction, and 250 μM each of ATP, CTP, GTP, and UTP, 2 mM of spermidine-(HCl)3, 5 mM of DTT, 40 mM Tris/HCl pH 8.0, 0.1 μl of [α-^32P] UTP (3000 Ci/mmole), and 25 units of the mutant T7 RNA polymerase F644Y/L665P/F667Y were also used for the reaction. For two kinds of reaction mixture (with or without 3′-dATP, final concentration was 100 μM), the reaction was performed at 37° C. for 60 minutes. The whole reaction mixture was spotted on DE81 paper (Whatman), washed three times with phosphate buffer, and dried. The DE81 paper was placed into a scintillation vial, and radioactivity was measured using a scintillation counter (Beckman) for each reaction. Degree of inhibition of the [α-^32P] UTP incorporation was calculated by comparing the values obtained with and without 3′-dATP based on the measured radioactivity. The relative activity obtained from calculated inhibition degree and defined as a relative value to the inhibition degree of the wild type T7 RNA polymerase normalized to 1.000 was shown in Table 1.
The inhibition degree was calculated by using the wild type T7 RNA polymerase, T7 RNA polymerase F644Y, L665P/F667Y obtained in Example 3, mutant T7 RNA polymerase F644Y/L665P, F782Y, F733Y, F646Y or Y639F constructed and purified in the same manner as in Examples 2 and 3 for the reaction instead of the above F644Y/L665P/F667Y mutant, and relative activities are shown in Table 1.
For example, it is meant that the mutant T7 RNA polymerase F644Y/L665P/F667Y is 5.58 times more likely to incorporate 31-dATP in comparison with the wild type enzyme.

[2] = tested on: human thyroid-stimulating hormone (hTSH-β) cDNA PCR product; experiment: Transcriptional sequencing reaction on PCR product of hTSH-β cDNA (Example 9); format: biochemical; conditions: four dye terminators, PCR product template, FIG. 18
Experimental: As the template for PCR, human thyroid-stimulating hormone (hTSH-β) cDNA subcloned into a plasmid derived from BS750 having T7 promoter was used. By using this plasmid […] having hTSH-β with L220 primer (5′-TAACAATTTCACACAGGAAACA-3′ (SEQ ID NO:38)) and 1211 primer (5′-ACGTTGTAAAACGACGGCCAGT-3′ (SEQ ID NO:39)) existing at both sides of the cloning site, PCR reaction was performed in a reaction volume of 20 μl (1 cycle of 94° C. for 2 minutes, 30 cycles of 94° C. for 1 minute, 55° C. for 1 minute, and 72° C. for 1.5 minutes, followed by 72° C. for 5 minutes). The T7 promoter existed in the downstream of 1211 primer of the PCR product obtained from the above PCR reaction.
The transcriptional sequencing reaction was performed by the method of Melton, D. A, [Nucleic Acids Res., 12: 7035-7056 (1984)].
1 μl (about 10 ng) of the above PCR product was used for the sequencing reaction. […]
The dried reaction product was dissolved in 6 μl of formamide/EDTA/Blue dextran loading buffer according to the instruction manual Ver. 1.0 of ABI PRISM 377 DNA Sequencing System available from Perkin-Elmer Japan, and 2 μl of the solution was analyzed by ABI 377 DNA Sequencer and an analysis program (Sequencing Analysis Ver. 3.0) using denatured gel for sequencing analysis which contained 6M urea/4% Long Ranger™ acrylamide solution (FMC) to afford an electropherogram.

B1: F644Y/L665P/F667Y: mutant T7 RNA polymerase introduced with F644Y/L665P/F667Y mutations (protein)
chain: MNTINIAKNDFSDIELAAIPFNTLADHYGERLAREQLALEHESYEMGEARFRKMFERQLKAGEVADNAAAKPLITTLLPKMIARINDWFEEVKAKRGKRPTAFQFLQEIKPEAVAYITIKTTLACLTSADNTTVQAVASAIGRAIEDEARFGRIRDLEAKHFKKNVEEQLNKRVGHVYKKAFMQVVEADMLSKGLLGGEAWSSWHKEDSIHVGVRCIEMLIESTGMVSLHRQNAGVVGQDSETIELAPEYAEAIATRAGALAGISPMFQPCVVPPKPWTGITGGGYWANGRRPLALVRTHSKKALMRYEDVYMPEVYKAINIAQNTAWKINKKVLAVANVITKWKHCPVEDIPAIEREELPMKPEDIDMNPEALTAWKRAAAAVYRKDKARKSRRISLEFMLEQANKFANHKAIWFPYNMDWRGRVYAVSMFNPQGNDMTKGLLTLAKGKPIGKEGYYWLKIHGANCAGVDKVPFPERIKFIEENHENIMACAKSPLENTWWAEQDSPFCFLAFCFEYAGVQHHGLSYNCSLPLAFDGSCSGIQHFSAMLRDEVGGRAVNLLPSETVQDIYGIVAKKVNEILQADAINGTDNEVVTVTDENTGEISEKVKLGTKALAGQWLAYGVTRSVTKRSVMTLAYGSKEYGFRQQVLEDTIQPAIDSGKGPMYTQPNQAAGYMAKLIWESVSVTVVAAVEAMNWLKSAAKLLAAEVKDKKTGEILRKRCAVHWVTPDGFPVWQEYKKPIQTRLNLMFLGQFRLQPTINTNKDSEIDAHKQESGIAPNFVHSQDGSHLRKTVVWAHEKYGIESFALIHDSFGTIPADAANLFKAVRETMVDTYESCDVLADFYDQFADQLHESQLDKMPALPAKGNLNLRDILESDFAFA
- ability for incorporating 3′-dATP, 3′-dGTP, 3′-dCTP, 3′-dUTP and derivatives thereof [1]: the least bias for the 3′-dATP incorporation among the mutant enzymes prepared; also recorded: markedly improved
- sequencing analysis [2]: Excellent sequencing analysis was possible
